In patent US20230050380A1 (CHIOME BIOSCIENCE, published 2023):
Residue numbers refer to the chain shown, from its start. One block for each binder: values may come before it.

What was measured:
[1] = biological target: T1, full-length hCDCP1 with N-terminal c-Myc tag (expression vector GS01), on Ba/F3-hCDCP1 cells or … (human, UniProt Q9H5V8 30-836); test: flow cytometry on Ba/F3-hCDCP1 cells
T1 construct: also called human CDCP1; hCDCP1 forced expression cells
T1 sequence: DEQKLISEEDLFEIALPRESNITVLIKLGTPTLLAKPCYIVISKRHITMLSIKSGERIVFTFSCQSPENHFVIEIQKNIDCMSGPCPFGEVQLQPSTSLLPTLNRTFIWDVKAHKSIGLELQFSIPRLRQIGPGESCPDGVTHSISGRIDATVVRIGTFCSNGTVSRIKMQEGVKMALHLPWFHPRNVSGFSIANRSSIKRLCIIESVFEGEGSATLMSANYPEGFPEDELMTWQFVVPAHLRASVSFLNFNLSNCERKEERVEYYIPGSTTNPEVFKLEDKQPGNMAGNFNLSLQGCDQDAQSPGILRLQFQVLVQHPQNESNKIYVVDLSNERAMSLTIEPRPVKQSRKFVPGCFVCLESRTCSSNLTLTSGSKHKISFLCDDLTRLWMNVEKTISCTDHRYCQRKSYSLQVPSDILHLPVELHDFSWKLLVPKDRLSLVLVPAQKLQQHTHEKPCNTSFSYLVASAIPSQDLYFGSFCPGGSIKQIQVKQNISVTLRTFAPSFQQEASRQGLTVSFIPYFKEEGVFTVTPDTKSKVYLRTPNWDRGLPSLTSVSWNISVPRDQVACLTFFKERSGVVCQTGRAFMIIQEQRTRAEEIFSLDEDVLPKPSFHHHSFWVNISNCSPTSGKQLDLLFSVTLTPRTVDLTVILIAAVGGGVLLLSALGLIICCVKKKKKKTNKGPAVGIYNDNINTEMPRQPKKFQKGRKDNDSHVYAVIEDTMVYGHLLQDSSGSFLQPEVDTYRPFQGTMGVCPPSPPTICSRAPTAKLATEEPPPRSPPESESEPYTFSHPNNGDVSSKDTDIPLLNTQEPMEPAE

[2] = biological target: T2, crab-eating macaque CDCP1 with N-terminal c-Myc tag (expression vector GS02), on crab-eating macaque … (crab-eating macaque (Macaca …, UniProt Q9H5V8 30-836 (human entry))); test: flow cytometry on crab-eating macaque CDCP1-expressing CHO-K1 cells
T2 chain: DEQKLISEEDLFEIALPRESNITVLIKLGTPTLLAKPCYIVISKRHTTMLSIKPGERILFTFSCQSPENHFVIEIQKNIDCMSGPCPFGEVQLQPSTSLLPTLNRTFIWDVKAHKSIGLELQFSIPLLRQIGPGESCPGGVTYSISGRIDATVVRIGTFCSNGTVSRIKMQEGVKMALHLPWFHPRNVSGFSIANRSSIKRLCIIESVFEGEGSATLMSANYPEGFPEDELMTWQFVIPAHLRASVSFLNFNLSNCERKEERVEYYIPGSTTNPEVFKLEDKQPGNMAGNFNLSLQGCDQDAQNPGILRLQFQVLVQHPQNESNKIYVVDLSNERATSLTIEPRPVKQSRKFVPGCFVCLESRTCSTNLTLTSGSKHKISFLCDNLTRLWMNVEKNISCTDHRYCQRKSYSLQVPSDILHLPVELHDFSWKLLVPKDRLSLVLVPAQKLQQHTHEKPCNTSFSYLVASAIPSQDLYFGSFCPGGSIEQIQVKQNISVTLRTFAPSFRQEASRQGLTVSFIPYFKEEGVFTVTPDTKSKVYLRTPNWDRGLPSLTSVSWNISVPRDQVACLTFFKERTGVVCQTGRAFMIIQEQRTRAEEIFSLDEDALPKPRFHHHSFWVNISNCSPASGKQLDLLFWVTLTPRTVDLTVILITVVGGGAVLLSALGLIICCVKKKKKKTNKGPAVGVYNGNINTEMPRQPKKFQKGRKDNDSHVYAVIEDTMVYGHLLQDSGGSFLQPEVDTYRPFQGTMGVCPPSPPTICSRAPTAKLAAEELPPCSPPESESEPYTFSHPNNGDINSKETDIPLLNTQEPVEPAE
From the text: The hCDCP1-expressing CHO-K1 cells and the crab-eating macaque CDCP1-expressing CHO-K1 cells were exfoliated and dispersed using 0.25% trypsin/EDTA (Nacalai Tesque, Inc.), and were then reacted with various concentrations of individual mouse-human chimeric antibodies, namely, mh12A041HCori/LCori, mh14A025HCori/LCori, mh14A043HCori/LCori, mh14A055, mh14A063HCori/LCori, and mh14A091. Thereafter, the binding property of the antibodies was observed by flow cytometry (FIG. 9). As a result, these 6 antibodies all reacted with the crab-eating macaque CDCP1, and in particular, the 5 antibodies other than mh14A055 reacted with both the human CDCP1 and the crab-eating macaque CDCP1 at the same levels.

[3] = biological target: T3, hCDCP1 expressed by PC3 cells and other human cancer cell lines (endogenous) (human, UniProt Q9H5V8 30-836); test: cancer cells that express hCDCP1; method not given
T3 construct: Endogenous protein on cell lines; PC3 is said to express also the cleaved form; also called human CDCP1
T3 sequence: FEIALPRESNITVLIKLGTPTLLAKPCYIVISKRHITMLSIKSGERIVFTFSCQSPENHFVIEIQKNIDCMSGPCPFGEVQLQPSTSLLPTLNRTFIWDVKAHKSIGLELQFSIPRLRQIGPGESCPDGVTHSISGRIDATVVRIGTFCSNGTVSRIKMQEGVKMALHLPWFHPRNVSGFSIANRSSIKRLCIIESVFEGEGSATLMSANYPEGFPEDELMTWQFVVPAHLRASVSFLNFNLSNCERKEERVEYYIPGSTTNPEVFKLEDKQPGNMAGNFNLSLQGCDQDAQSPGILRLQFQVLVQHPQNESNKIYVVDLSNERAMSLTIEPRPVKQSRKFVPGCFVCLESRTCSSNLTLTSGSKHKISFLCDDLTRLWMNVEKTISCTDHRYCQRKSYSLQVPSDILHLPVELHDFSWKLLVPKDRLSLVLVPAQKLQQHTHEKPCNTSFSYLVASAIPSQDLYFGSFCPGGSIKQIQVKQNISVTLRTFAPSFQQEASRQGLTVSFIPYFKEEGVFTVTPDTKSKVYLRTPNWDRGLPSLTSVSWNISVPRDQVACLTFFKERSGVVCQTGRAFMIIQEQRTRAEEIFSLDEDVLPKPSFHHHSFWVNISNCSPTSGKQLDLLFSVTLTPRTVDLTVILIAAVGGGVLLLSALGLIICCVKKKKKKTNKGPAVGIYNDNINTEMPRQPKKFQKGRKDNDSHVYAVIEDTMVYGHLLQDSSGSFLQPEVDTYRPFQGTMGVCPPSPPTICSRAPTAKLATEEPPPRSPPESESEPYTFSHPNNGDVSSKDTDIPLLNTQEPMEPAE

[4] = biological target: T1, full-length hCDCP1 with N-terminal …; test: flow cytometry on untreated Ba/F3-hCDCP1 cells (comparison of FIG. 8)
Description: In order to investigate whether the obtained anti-hCDCP1 mouse-human chimeric antibodies bind to the N-terminal side of the serine protease cleavage site of the hCDCP1 molecules or bind to the transmembrane region side, […] the technique mentioned in the previous section. The following anti-hCDCP1 mouse-human chimeric antibody clones were evaluated: [0259] mh12A041HCori/LCori, mh14A025HCori/LCori, mh14A043HCori/LCori, mh14A055, mh14A063HCori/LCori, and mh14A091.
[…] It was confirmed by the same Western blotting as that mentioned in the previous section that the full-length hCDCP1 disappeared and only the cleaved hCDCP1 was present in the above-treated Ba/F3-CDCP1 cells. With respect to these cells, a dilution series of anti-hCDCP1 mouse-human chimeric antibodies from 5 μg/mL to 5 ng/mL was prepared, and was then reacted at 4° C. for 30 minutes. As a negative control, a similar dilution series of anti-RS virus antibodies described in the later section was prepared as a non-specific human IgG, and was then reacted at 4° C. for 30 minutes.

B1: h14A063VH2/VL2 (antibody, human IgG1, kappa)
heavy: not shown
light: EIVLTQSPATLSLSPGERATLSCRASESVDSYGNSFMHWYQQKPGQAPRLLIFLASNLESGVPARFSGSGSGTDFTLTISSLEPEDFAVYYCQQNNEDPWTFGGGTKVEIKRTVAAPSVFIFPPSDEQLKSGTASVVCLLNNFYPREAKVQWKVDNALQSGNSQESVTEQDSKDSTYSLSSTLTLSKADYEKHKVYACEVTHQGLSSPVTKSFNRGEC
notes: humanized antibody, human IgG1/kappa constant regions
binding result [1]: binds

B2: h14A063VH4/VL1 (antibody, human IgG1, kappa, V domains shown)
VH: EVQLVESGGGLVQPGGSLRLSCAASGFTFSSYTMSWVRQAPEKRLEWVAYISSGGGSTYYPDTVKGRFTISRDNAKNSLYLQMNSLRAEDTAVYYCARYDLGFAYWGQGTLVTVSS
VL: EIVLTQSPATLSLSPGERATLSCRASESVDSYGNSFMHWYQQKPGQAPRLLIFLASNLESGVPARFSGSGSRTDFTLTISSLEPEDFAVYYCQQNNEDPWTFGGGTKVEIKR
notes: humanized antibody, human IgG1/kappa constant regions; also called h14A063VH4/VL1-biotin (biotinylated form)
binding result [1]: binds

B3: h14A063VH3/VL2 (antibody, human IgG1, kappa)
heavy: not shown
light: B1 light
notes: as for B1
binding result [1]: binds

B4: h14A063VH3/VL1 (antibody, human IgG1, kappa)
heavy: not shown
light: B1 light with G72R
notes: as for B1
binding result [1]: binds

B5: h14A063VH4/VL2 (antibody, human IgG1, kappa, V domains shown)
VH: B2 VH
VL: B2 VL with R72G
notes: humanized antibody, human IgG1/kappa constant regions; also called h14A063VH4/VL2-biotin (biotinylated form)
binding result [1]: binds

B6: mh14A025HCori/LCori (antibody, human IgG1, kappa, V domains shown)
VH: EVQLQESGAELVRPGALVKLSCKASGFNIKDYYMHWVKQRPEQGLEWIGWIDPENGNTIYDPKFQGKASITADTSSNTAYLQLSSLTSEDTAVYYCGGLLYAMDYWGQGTSVTVSS
VL: DIQMTQTTSSLSASLGDRVTISCRASQDISNYLNWYQQKPDGTVKLLIYFTSRLHSGVPSRFSGSGSGTDYSLTISNLEQEDIATYFCQQGNTLPRTFGGGTKLEIRR
notes: mouse-human chimeric antibody, human IgG1/kappa constant regions; also called mh14A025HCori/LCori-biotin (biotinylated form)
binding result [2]: binds
binding result [1]: binds

Results, then the binder that gave them:

binding result [3]: binds
B7: 25A11 antibody (antibody, human IgG1, kappa, V domains shown)
VH: QVQLQQPGAELVKPGASVKMSCKASGYTFTSYYMYWVKQRPGQGLEWIGEINPSHGGTNFNEKFKNKATLTVDKSSSTVYMQLSSLTSEDSAVYYCTRGGNYPYFAMDYWGQGTSVTVSS
VL: B6 VL with F50Y, R96W, R107K
notes: also called 25A11 biotin; 25A11-biotin (biotinylated form)

binding result [2]: binds
binding result [1]: binds
B8: mh14A043HCori/LCori (antibody, human IgG1, kappa, V domains shown)
VH: B6 VH with H35N, G97Y, L99S, L100S, A102R, M103F, D104T, S111L
VL: QIVLIQSPALMSASPGEKVTMTCSASSSVSYMYWYQQKPRSSPKPWIYLTSNLASGVPARFSGSGSGTSYSLTISSMEAEDAATYYCQQWSSNPFTFGSGTKLEIKR
notes: mouse-human chimeric antibody, human IgG1/kappa constant regions; also called mh14A043HCori/LCori-biotin (biotinylated form)

binding result [2]: binds
binding result [4]: binds
B9: mh14A055 (antibody, human IgG1, kappa, V domains shown)
VH: EVQLQESGPGLVAPSQSLSITCTVSGFSLTGYGVNWVRQPPGKGLEWLGMIWGDGSTDYNSALKSRLSISKDNSKSQVFLKMNSLQTDDTARYYCARDGYDGAMDYWGQGTSVTVSS
VL: not shown
notes: mouse-human chimeric antibody of 14A055, human IgG1/kappa constant regions

binding result [2]: binds
binding result [1]: binds
B10: mh14A063HCori/LCori (antibody, human IgG1, kappa, V domains shown)
VH: B2 VH with V5Q, R19K, A40T, S53N, S78T, N84S, R87K, A88S, V93M
VL: NIVLTQSPASLAVSLGQRATISCRASESVDSYGNSFMHWYQQKPGQPPKLLIFLASNLESGVPARFSGSGSRTDFTLTIDPVEADDAATYYCQQNNEDPWTFGGGTNLEIKR
notes: mouse-human chimeric antibody, human IgG1/kappa constant regions; also called mh14A063HCori/LCori-biotin (biotinylated form)

binding result [2]: binds
binding result [1]: binds
B11: mh12A041HCori/LCori (antibody, human IgG1, kappa, V domains shown)
VH: EVQLQESGPGILQPSQTLSLTCSFSGFSLSTSGMGVSWIRQPSGKGLEWLAHIYWDDDKRYNPSLKSRLTISKDTSSNQVFLKITSVDTADTATYYCARSGSYYGSSLDCWGQGTTLTVSS
VL: DVLMTQTPLSLPVSLGDQASISCRSSQSIVHSNGNTYLEWYLQKPGQSPKLLIYKVSNRFSGVPDRFSGSGSGTDFTLKISRVEAEDLGVYYCFQGSHVPWTFGGGTKLEIKR
notes: mouse-human chimeric antibody, human IgG1/kappa constant regions; also called mh12A041HCori/LCori-biotin (biotinylated form)

binding result [3]: binds
B12: CUB4 antibody (antibody, human IgG1, kappa, V domains shown)
VH: EVQLVESGGGLVQPGGSLRLSCAASGFTFNSYGMSWVRQAPGKGLEWVATISSGGSYKYYVDSVKGRFTISRDNAKNSLYLQMNSLRAEDTAVYYCARHPDYDGVWFAYWGQGTLVTVSS
VL: EIVLTQSPATLSLSPGERATMSCSVSSSVFYLHWYQQKPGQAPRLWIYDTSKLASGIPARFSGSGSGTDFTLTISSLEPEDFAVYYCQQWNSNPPTFGGGTKVEIKR
notes: also called CUB4-biotin (biotinylated form)
